Results from patent US20240368239A1, “Novel bispecific protein and use thereof” (SL METAGEN, priority 2020, published 2024).
“Also recorded” adds a separate entry of the source.

Tests used:
[1] = test system: C57BL/6J male mice on CD-HFD; assay: Choline-deficient high-fat diet (CD-HFD) metabolic syndrome model; type: in vivo
Text: To this end, in particular, with respect to experimental animals induced with fatty liver and steatohepatitis through high-fat diet, as shown in FIG. 13a and Table 8, the present inventors performed a choline-deficient high-fat diet ([…]) for 12 weeks using 8-week-old C57BL/6J male mice, and then 20 nmol/kg of MG12-5, MG12-8, and each of 10 nmol/kg of GLP-1 and GLP-2 combination (combo) were administrated twice subcutaneously twice to experimental animals respectively, along with a CD-HFD diet for 4 weeks, and various serological and histological analyses were performed.
First, the present inventors recorded changes in body weight and food intake of experimental animals during the experiment period.
As described above, after 16 weeks on CD-HFD, mice treated with drugs (MG12-5, MG12-8, and GLP-1 and GLP-2 combo) twice a week for 4 weeks, after food restriction 12 hours, were intraperitoneally administered with glucose at a dose of 2 g/kg, and changes in blood glucose level were measured at a time interval for a total of 3 hours. […] FIG. 14b is a graph showing the area under the curve related to changes in blood glucose level.
The present inventors sacrificed and extracted liver tissues from a mouse having completed the drug administration experiment as described above, and captured photographs thereof to examine changes in the size and color of the liver tissues, and measured the weight of the extracted liver tissues as well as ALT blood level, which is a measure of hepatotoxicity level.

[2] = In vivo pharmacokinetics profile after subcutaneous administration (GLP-1-Fc ELISA and GLP-2-Fc ELISA); design: species or system male SD (Sprague Dawley) rats; settings: for AUClast / Cmax / Half-life / Tmax: 1 mg/kg SC
Protocol: First, each protein was administered to 3 male SD (Sprague Dawley) rats per group at a dose of 1 mg/kg by subcutaneous (SC) route. Before injection and after 0.5, 1, 5, 10, 24, 48, 72, 120, and 168 hours after the injection, blood was collected and stored at room temperature for 30 minutes to aggregate. After centrifuging the aggregated blood at 3,000 rpm for 10 minutes, serum of each sample was collected and stored in a cryogenic freezer. Analyses were performed by an assay designed to specifically detect the GLP-1 site and Fc in the administered protein (GLP-1-Fc ELISA) and an assay designed to specifically detect the GLP-2 site and Fc in the administered protein (GLP-2-Fc ELISA). Specifically, a method of loading a biological sample on a plate coated with an antibody that binds to mouse-derived human immunoglobulin G4 (IgG4) to detect the target protein using a biotinylated anti-GLP-1 antibody (GLP-1-Fc ELISA), and a method of loading a biological sample on a plate coated with a monoclonal antibody that specifically reacts with GLP-2, to detect the target protein using a secondary antibody having HRP conjugated to mouse-derived human immunoglobulin G4 (IgG4) (GLP-2-Fc ELISA) were used. The obtained and prepared serum samples were loaded with appropriate dilutions to be analyzed at a position on a straight line of the standard curve.

Balb/c-nude mice = assay: PET-MRI tissue distribution of Zr89-labelled proteins; type: in vivo; settings: Zr89 label, SC
Text: Next, the present inventors performed an experiment in Balb/c-nude mice in order to observe the distribution in each tissue organ following the administration of a substance. Zr^89 was used as a radiotracer for tracking the distribution after administration of each substance. Each substance to be administered was labeled with Zr^89 as a reaction condition and a chelator selected through a preliminary test. The labeled Zr^89-protein was purified using a PD-10 column, and Zr^89 labeling efficiency and purity were confirmed using Radio TLC and SEC-HPLC. The labeling efficiency of the Zr^89-protein of 90% or more and the purity of 80% or more were determined to be appropriate, and the labeled protein was administered subcutaneously at 0.2 mCi/0.2 cc. Each administration substance was administered to three animals and static images for 20 minutes were obtained using PET-MRI at 1 hour, 6 hours, 24 hours, 48 hours, and 168 hours after injection. Through image analysis, the distribution of drugs as a function of time in the liver, small intestine, and large intestine was expressed as SUV (Standardized Uptake Value) and comparatively analyzed.

B6 normal mice [3] = assay: MG12 vs. GLP-1 and GLP-2 combo: body weight and small intestine changes; type: in vivo; settings: 12 days SC
Protocol: In particular, in order to observe changes in body weight and the small intestine following the substance administration, an experiment was conducted in B6 normal mice. […] After starting drug administration twice a week during the test period, feed intake was measured and expressed as cumulative feed intake, and pre-autopsy body weight was measured to calculate the body weight vs. feed intake. After the autopsy, the weight of the small intestine, and mucosal depth and villus height of the duodenum and the jejunum were measured. More specifically, after the autopsy, the entire gastrointestinal tract of the mouse was separated, the mesentery and the pancreas were excised, and the area where the ileum and the cecum meet was cut to separate the small intestine and the large intestine.

B6 normal mice [4] = assay: Small intestine changes and nutrient absorption changes (GLP-2-2G, GLP-2-Fc homodimer, MG12-5); type: in vivo
Protocol: In order to observe changes in the small intestine and nutrient absorption capacity following substance administration, an experiment was conducted in B6 normal mice. PBS and GLP-2-2G were administered twice a day, and GLP-2-Fc homodimer and MG12-5 were administered once every three days for 2 weeks. For the GLP-2-Fc homodimer and MG12-5 groups, PBS was administered twice a day, as was in the other administration groups, during the period when no drug was administered. Body weight and dietary intake were monitored at 3-day intervals, and feces were collected before administration, on days 5-6 after administration, and on days 11-12 after administration, and calorimetry was performed using a bomb calorimeter, and also, feed ingested during this period was also subjected to calorimetry through the same analysis. The energy absorption rate was defined as a value obtained by subtracting the calorific value of feces from the caloric value of ingested feed. On day 14 following drug administration, the experimental animals were sacrificed and the small intestine (pylorus ileum) was weighed.

[5] = 20 nmol/kg SC, 4 weeks with CD-HFD
[6] = excised liver at end of experiment

B1: MG12-5: Knob/hole Fc heterodimer: GLP-1/Exendin 4 hybrid (SEQ 5), unmodified linker, first fusion protein SEQ 28; GLP-2 (SEQ 17), second fusion protein SEQ 34 (protein)
chain 1: HGEGTFTSDVSSYLEGQAAKEFIAWLVKGGPSSGAPPPSGGGGSGGGGSGGGGSEKEKEEQEERTHTCPPCPSHTQPLGVFLFPPKPKDQLMISRTPEVTCVVVDVSQEDPEVQFNWYVDGVEVHNAKTKPREEQFNSTYRVVSVLTVLHQDWLNGKEYKCKVSNKGLPSSIEKTISKAKGQPREPQVYTLPPCQEEMTKNQVSLWCLVKGFYPSDIAVEWESNGQPENNYKTTPPVLDSDGSFFLYSRLTVDKSRWQEGNVFSCSVLHEALHNHYTQKSLSLSLGK
chain 2: HGDGSFSDEMNTILDNLAARDFINWLIQTKITDGGGGSGGGGSGGGGSEKEKEEQEERTHTCPPCPSHTQPLGVFLFPPKPKDQLMISRTPEVTCVVVDVSQEDPEVQFNWYVDGVEVHNAKTKPREEQFNSTYRVVSVLTVLHQDWLNGKEYKCKVSNKGLPSSIEKTISKAKGQPREPQVCTLPPSQEEMTKNQVSLSCAVKGFYPSDIAVEWESNGQPENNYKTTPPVLDSDGSFFLVSRLTVDKSRWQEGNVFSCSVLHEALHNHYTQKSLSLSLGK
In the case of B1, the “body weight (relative change)” value [1, 5] is reported as “greater relative body weight reduction effect”, the feed intake [1, 5] is reported as “lower feed intake” and the “blood ALT level” value ([1]; after 16 weeks of CD-HFD diet) is reported as “decrease in ALT level to a level similar to that of the normal diet group”. The liver color [1, 6] was “liver color similar to that of the normal diet group”, the liver weight [1, 6] was “reduced” and the “blood glucose level, intraperitoneal glucose tolerance test” value ([1]; glucose 2 g/kg i.p. after 12 hours food restriction, 3 hours) was “statistically significant decrease in blood glucose level”. For the same molecule, the “area under the curve of the change in blood glucose level” value ([1]; intraperitoneal glucose tolerance test) was “decreased two times or more”, the “terminal half-life, rank among MG12-1, 3, 4 and 5” value ([2]; GLP-2-Fc ELISA) was “shortest half-life” and the “Cmax, rank among MG12-1, 3, 4 and 5” value ([2]; both ELISA methods) was “highest value”. For the same molecule, the AUClast ([2]; rat, GLP-1-Fc ELISA (Table 5)) was 26.0596 ± 3.0285 µg·h/mL, the Cmax ([2]; rat, GLP-1-Fc ELISA (Table 5)) was 1036.2 ± 59.5 ng/mL and the Half-life ([2]; rat, GLP-1-Fc ELISA (Table 5)) was 18.4 ± 6.2 h. For the same molecule, the Tmax ([2]; rat, GLP-1-Fc ELISA (Table 5)) was 10 h, the AUClast ([2]; rat, GLP-2-Fc ELISA (Table 6)) was 188.7416 ± 7.8705 µg·h/mL and the Cmax ([2]; rat, GLP-2-Fc ELISA (Table 6)) was 3201.3 ± 95.6 ng/mL. For the same molecule, the Half-life ([2]; rat, GLP-2-Fc ELISA (Table 6)) was 30.6 ± 2.1 h, the Tmax ([2]; rat, GLP-2-Fc ELISA (Table 6)) was 24.0 ± 0.0 h and the “AUClast, rank among MG12-1, 3, 4 and 5” value ([2]; rat, SC) was “highest”. The “distribution to the liver (SUV)” value (Balb/c-nude mice) was “reduced or showed no difference compared to Fc”, the “distribution to the small intestine and large intestine (SUV)” value (Balb/c-nude mice) was “significantly high compared to that of GLP-1-Fc homodimer and GLP-2-Fc homodimer” and the “body weight increase vs. feed intake” value (B6 normal mice [3]; normalized to cumulative feed intake) was “statistically significant body weight increase compared to the co-administered group”. For the same molecule, the small intestine weight (B6 normal mice [3]; Ex-4 10 nmol/kg, others 33.3 nmol/kg) was “statistically significant increase in the small intestine compared to the co-administered group”, the body weight (B6 normal mice [4]; 2 weeks dosing) was “an increase significant compared to the negative control group; also recorded: statistically significant body weight increase compared to other drug administered groups” and the energy absorption rate (B6 normal mice [4]; Week 1, after the second dose) was “statistically significant increase compared to the vehicle-administered group”. For the same molecule, the energy absorption rate (B6 normal mice [4]; Week 2, after the fourth dose) was “an increase even more significant than GLP-2-Fc homo” and the small intestine weight (B6 normal mice [4]; day 14, 2 weeks dosing) was “most notable increase in the small intestine weight; also recorded: statistically significant increase compared to the other two drug administered group; also recorded: superior effect of increasing small intestine weight to GLP-2-2G and GLP-2-Fc homodimer”.
